This is an account of results in US20260049138A1 (Chugai, published 2026).

Residue numbers refer to the chain shown, from its start. In names and notes the source's numbering stands.

The assay addresses T1, CD3ε homodimer protein (human, UniProt P07766 23-126, limits assumed).
T1 construct: also called CD3 (CD3ε)
Briefly: SPR Biacore T200, CD3ε homodimer on chip.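 Further: Light-chain single-residue variant antibodies injected over amine-coupled CD3ε homodimer on a CM4 chip at 25 °C, bound amount divided by that of the GLS3000-containing antibody.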

T1 sequence (P07766 23-126 limits assumed): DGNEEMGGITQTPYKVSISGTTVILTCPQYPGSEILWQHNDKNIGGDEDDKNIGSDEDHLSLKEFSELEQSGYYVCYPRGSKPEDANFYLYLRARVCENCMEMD
Description: Each one-amino acid altered form constructed, expressed, and purified in the paragraph (6-2) was evaluated using Biacore T200 (GE Healthcare Japan Corp.). An appropriate amount of CD3ε homodimer protein was immobilized onto Sensor chip CM4 (GE Healthcare Japan Corp.) by the amine coupling method. Then, the antibody having an appropriate concentration was injected thereto as an analyte and allowed to interact with the CD3ε homodimer protein on the sensor chip. Then, the sensor chip was regenerated by the injection of 10 mmol/L glycine-HCl (pH 1.5). The assay was conducted at 25° C., and HBS-EP+ (GE Healthcare Japan Corp.) was used as a running buffer. […] Each parameter was calculated using Biacore T200 Evaluation Software (GE Healthcare Japan Corp.).
Specifically, when the amount of the GLS3000-containing antibody bound was defined as X and the amount of the L chain one-amino acid altered form bound was defined as Y, a value of Z (ratio of amounts bound)=Y/X was used.

B1: GLS3000 H27dA one-arm antibody (antibody, human IgG1, kappa, L234A L235A, N297A, name in Kabat numbering)
heavy: QVQLVESGGGVVQPGRSLRLSCAASGFTFSNAWMHWVRQAPGKGLEWVAQIKAKSNNYATYYAESVKGRFTISRDDSKNSLYLQMNSLKTEDTAVYYCRYVHYGAYYGVDAWGQGTTVTVSSASTKGPSVFPLAPSSKSTSGGTAALGCLVKDYFPEPVTVSWNSGALTSGVHTFPAVLQSSGLYSLSSVVTVPSSSLGTQTYICNVNHKPSNTKVDKKVEPKSCDKTHTCPPCPAPEAAGGPSVFLFPPKPKDTLMISRTPEVTCVVVDVSHEDPEVKFNWYVDGVEVHNAKTKPREEQYASTYRVVSVLTVLHQDWLNGKEYKCKVSNKALPAPIEKTISKAKGQPREPQVYTLPPSRCELTKNQVSLSCAVKGFYPSDIAVEWESNGQPENNYKTTPPVLDSDGSFFLVSKLTVDKSRWQQGNVFSCSVMHEALHNHYTQKSLSLSPDYKDDDDK
chain: EPKSSDKTHTCPPCPAPELLGGPSVFLFPPKPKDTLMISRTPEVTCVVVDVSHEDPEVKFNWYVDGVEVHNAKTKPREEQYNSTYRVVSVLTVLHQDWLNGKEYKCKVSNKALPAPIEKTISKAKGQPREPQVCTLPPSRDELTKNQVSLWCLVKGFYPSDIAVEWESNGQPENNYKTTPPVLDSDGSFFLYSKLTVDKSRWQQGNVFSCSVMHEALHNRYTQKSLSLSP
light: DIVMTQSPLSLPVTPGEPASISCRSSQSLVASNRNTYLHWYQQKPGQAPRLLIYKVSNRFSGVPDRFSGSGSGTDFTLKISRVEAEDVGVYYCGQGTQVPYTFGQGTKLEIKRTVAAPSVFIFPPSDEQLKSGTASVVCLLNNFYPREAKVQWKVDNALQSGNSQESVTEQDSKDSTYSLSSTLTLSKADYEKHKVYACEVTHQGLSSPVTKSFNRGEC
B1: the “ratio of amount bound vs unaltered GLS3000” value (from here on “ratio of amount bound”) stood at 0.48.

B2: GLS3000 F55R one-arm antibody (antibody, human IgG1, kappa, L234A L235A, N297A, name in Kabat numbering)
heavy: B1 heavy
chain: B1 chain
light: B1 light with A31H, F60R
With B2, the “ratio of amount bound” value is 1.31.

B3: GLS3000 G89H one-arm antibody (antibody, human IgG1, kappa, L234A L235A, N297A, name in Kabat numbering)
heavy: B1 heavy
chain: B1 chain
light: B1 light with A31H, G94H
B3: the “ratio of amount bound” value turned out to be 0.7.

B4: GLS3000 F55W one-arm antibody (antibody, human IgG1, kappa, L234A L235A, N297A, name in Kabat numbering)
heavy: B1 heavy
chain: B1 chain
light: B1 light with A31H, F60W
Take B4: the “ratio of amount bound” value was 0.69.

B5: GLS3000 F55N one-arm antibody (antibody, human IgG1, kappa, L234A L235A, N297A, name in Kabat numbering)
heavy: B1 heavy
chain: B1 chain
light: B1 light with A31H, F60N
With B5, the “ratio of amount bound” value was determined as 0.98.

B6: GLS3000 G89M one-arm antibody (antibody, human IgG1, kappa, L234A L235A, N297A, name in Kabat numbering)
heavy: B1 heavy
chain: B1 chain
light: B1 light with A31H, G94M
As to B6, the “ratio of amount bound” value is 0.52.

B7: GLS3000 F55M one-arm antibody (antibody, human IgG1, kappa, L234A L235A, N297A, name in Kabat numbering)
heavy: B1 heavy
chain: B1 chain
light: B1 light with A31H, F60M
For B7, the “ratio of amount bound” value worked out at 0.8.

B8: GLS3000 F55Q one-arm antibody (antibody, human IgG1, kappa, L234A L235A, N297A, name in Kabat numbering)
heavy: B1 heavy
chain: B1 chain
light: B1 light with A31H, F60Q
On to B8, for which the “ratio of amount bound” value was determined as 0.91.

B9: GLS3000 F55D one-arm antibody (antibody, human IgG1, kappa, L234A L235A, N297A, name in Kabat numbering)
heavy: B1 heavy
chain: B1 chain
light: B1 light with A31H, F60D
With B9, the “ratio of amount bound” value came out at 0.65.

B10: GLS3000 F55V one-arm antibody (antibody, human IgG1, kappa, L234A L235A, N297A, name in Kabat numbering)
heavy: B1 heavy
chain: B1 chain
light: B1 light with A31H, F60V
As for B10, the “ratio of amount bound” value was found to be 0.71.

B11: GLS3000 G89N one-arm antibody (antibody, human IgG1, kappa, L234A L235A, N297A, name in Kabat numbering)
heavy: B1 heavy
chain: B1 chain
light: B1 light with A31H, G94N
For the molecule B11, the “ratio of amount bound” value came out at 0.8.

B12: GLS3000 G89E one-arm antibody (antibody, human IgG1, kappa, L234A L235A, N297A, name in Kabat numbering)
heavy: B1 heavy
chain: B1 chain
light: B1 light with A31H, G94E
As for B12, the “ratio of amount bound” value came to 0.26.

B13: GLS3000 G89P one-arm antibody (antibody, human IgG1, kappa, L234A L235A, N297A, name in Kabat numbering)
heavy: B1 heavy
chain: B1 chain
light: B1 light with A31H, G94P
Turning to B13, the “ratio of amount bound” value was 0.35.

B14: GLS3000 G89F one-arm antibody (antibody, human IgG1, kappa, L234A L235A, N297A, name in Kabat numbering)
heavy: B1 heavy
chain: B1 chain
light: B1 light with A31H, G94F
Regarding B14, the “ratio of amount bound” value was 1.09.

B15: GLS3000 G89K one-arm antibody (antibody, human IgG1, kappa, L234A L235A, N297A, name in Kabat numbering)
heavy: B1 heavy
chain: B1 chain
light: B1 light with A31H, G94K
Turning to B15, the “ratio of amount bound” value turned out to be 0.4.

B16: GLS3000 F55T one-arm antibody (antibody, human IgG1, kappa, L234A L235A, N297A, name in Kabat numbering)
heavy: B1 heavy
chain: B1 chain
light: B1 light with A31H, F60T
Regarding B16, the “ratio of amount bound” value is 0.41.

B17: GLS3000 G89L one-arm antibody (antibody, human IgG1, kappa, L234A L235A, N297A, name in Kabat numbering)
heavy: B1 heavy
chain: B1 chain
light: B1 light with A31H, G94L
In the case of B17, the “ratio of amount bound” value is 0.94.

B18: GLS3000 F55K one-arm antibody (antibody, human IgG1, kappa, L234A L235A, N297A, name in Kabat numbering)
heavy: B1 heavy
chain: B1 chain
light: B1 light with A31H, F60K
Consider B18, for which the “ratio of amount bound” value worked out at 1.33.

B19: GLS3000 G89Q one-arm antibody (antibody, human IgG1, kappa, L234A L235A, N297A, name in Kabat numbering)
heavy: B1 heavy
chain: B1 chain
light: B1 light with A31H, G94Q
On to B19, for which the “ratio of amount bound” value turned out to be 0.38.

B20: GLS3000 F55L one-arm antibody (antibody, human IgG1, kappa, L234A L235A, N297A, name in Kabat numbering)
heavy: B1 heavy
chain: B1 chain
light: B1 light with A31H, F60L
As to B20, the “ratio of amount bound” value amounted to 0.76.

B21: GLS3000 F55S one-arm antibody (antibody, human IgG1, kappa, L234A L235A, N297A, name in Kabat numbering)
heavy: B1 heavy
chain: B1 chain
light: B1 light with A31H, F60S
As to B21, the “ratio of amount bound” value is 0.69.

B22: GLS3000 G89I one-arm antibody (antibody, human IgG1, kappa, L234A L235A, N297A, name in Kabat numbering)
heavy: B1 heavy
chain: B1 chain
light: B1 light with A31H, G94I
As for B22, the “ratio of amount bound” value worked out at 1.07.

B23: GLS3000 F55A one-arm antibody (antibody, human IgG1, kappa, L234A L235A, N297A, name in Kabat numbering)
heavy: B1 heavy
chain: B1 chain
light: B1 light with A31H, F60A
Consider B23, for which the “ratio of amount bound” value was 1.13.

B24: GLS3000 F55P one-arm antibody (antibody, human IgG1, kappa, L234A L235A, N297A, name in Kabat numbering)
heavy: B1 heavy
chain: B1 chain
light: B1 light with A31H, F60P
B24: the “ratio of amount bound” value is 1.16.

B25: GLS3000 F55H one-arm antibody (antibody, human IgG1, kappa, L234A L235A, N297A, name in Kabat numbering)
heavy: B1 heavy
chain: B1 chain
light: B1 light with A31H, F60H
In the case of B25, the “ratio of amount bound” value is 0.94.

B26: GLS3000 G89A one-arm antibody (antibody, human IgG1, kappa, L234A L235A, N297A, name in Kabat numbering)
heavy: B1 heavy
chain: B1 chain
light: B1 light with A31H, G94A
For the molecule B26, the “ratio of amount bound” value was 1.13.

B27: GLS3000 G89D one-arm antibody (antibody, human IgG1, kappa, L234A L235A, N297A, name in Kabat numbering)
heavy: B1 heavy
chain: B1 chain
light: B1 light with A31H, G94D
B27: the “ratio of amount bound” value is 0.33.

B28: GLS3000 F55Y one-arm antibody (antibody, human IgG1, kappa, L234A L235A, N297A, name in Kabat numbering)
heavy: B1 heavy
chain: B1 chain
light: B1 light with A31H, F60Y
On to B28, for which the “ratio of amount bound” value came to 0.92.

B29: GLS3000 F55E one-arm antibody (antibody, human IgG1, kappa, L234A L235A, N297A, name in Kabat numbering)
heavy: B1 heavy
chain: B1 chain
light: B1 light with A31H, F60E
With B29, the “ratio of amount bound” value came to 0.72.

B30: GLS3000 F55G one-arm antibody (antibody, human IgG1, kappa, L234A L235A, N297A, name in Kabat numbering)
heavy: B1 heavy
chain: B1 chain
light: B1 light with A31H, F60G
B30: the “ratio of amount bound” value stood at 1.31.

B31: GLS3000 G89R one-arm antibody (antibody, human IgG1, kappa, L234A L235A, N297A, name in Kabat numbering)
heavy: B1 heavy
chain: B1 chain
light: B1 light with A31H, G94R
Regarding B31, the “ratio of amount bound” value turned out to be 0.19.

B32: GLS3000 F55I one-arm antibody (antibody, human IgG1, kappa, L234A L235A, N297A, name in Kabat numbering)
heavy: B1 heavy
chain: B1 chain
light: B1 light with A31H, F60I
For the molecule B32, the “ratio of amount bound” value turned out to be 0.82.
